Read-outs that look alike come from different tables or passages of the source.
Columns and labels:
DRB1*07:01 [1] = settings: modification not given
[2] = biological target: M protein peptide on HLA-A*02:01 (human); test: barcoded tetramer library on ex vivo CD8+ T cells, single-cell sequencing; T cell clone or line; settings: chains Valpha:Vbeta
DRB1*15:01 [3] = settings: modification not given
DRB01*04:04 [4] = settings: chains peptide; modification not given
DRB01*15:01 [5] = settings: chains peptide; modification not given
DRB1*07:01 [6] = settings: modification not given; remark: listed apart in the source
DRB1*15:01 [7] = settings: modification not given; remark: listed apart in the source
I-Ab (mouse), P14434 = biological target: T1, I-Ab (mouse), P14434; test: biochemically tested I-Ab binding affinity (method not told)
T1 chain 1: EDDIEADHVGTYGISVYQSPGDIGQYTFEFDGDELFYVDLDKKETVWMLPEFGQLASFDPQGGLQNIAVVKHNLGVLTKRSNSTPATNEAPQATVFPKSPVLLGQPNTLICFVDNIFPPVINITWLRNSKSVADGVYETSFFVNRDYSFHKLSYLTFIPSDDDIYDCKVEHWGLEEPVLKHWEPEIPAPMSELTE
T1 chain 2: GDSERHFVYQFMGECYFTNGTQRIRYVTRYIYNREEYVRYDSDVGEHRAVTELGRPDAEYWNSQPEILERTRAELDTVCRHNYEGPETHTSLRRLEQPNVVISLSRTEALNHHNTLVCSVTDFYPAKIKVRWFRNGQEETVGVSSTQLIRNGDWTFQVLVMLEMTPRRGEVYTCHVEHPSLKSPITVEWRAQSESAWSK

[8] = biological target: SARS-CoV-2 peptide on HLA-A*02:01 (human); test: barcoded tetramer library on ex vivo CD8+ T cells, single-cell sequencing; T cell clone or line; settings: chains Valpha:Vbeta
DRB01*15:01 [9] = settings: chains peptide; modification not given; remark: listed apart in the source
DRB01*04:04 [10] = settings: chains peptide; modification not given; remark: listed apart in the source
DRB01*11:01 = settings: chains peptide; modification not given
DRB01*07:01 = settings: chains peptide; modification not given

B1: … (position 1112) (peptide)
chain: PQIITTDNTFVSGNC
IC50 (DRB1*07:01 [1]): 7.37 µM

B2: TCR_74 (protein)
chain 1: GQNIDQPTEMTATEGAIVQINCTYQTSGFNGLFWYQQHAGEAPTFLSYNVLDGLEEKGRFSSFLSRSKGYSYLLLKELQMKDSASYLCAVRDLGGQKLLFARGTMLKVDL
chain 2: DAGVTQSPTHLIKTRGQQVTLRCSPKSGHDTVSWYQQALGQGPQFIFQYYEEEERQRGNFPDRFSGHQFPNYSSELNVNALLLGDSALYLCASSLGQGSPAGANVLTFGAGSRLTVL
No. of Cells [2]: 2 cells

B3: … (position 477) (peptide)
chain: STPCNGVEGFNCYFP
IC50 (DRB1*15:01 [3]): 6.82 µM

B4: SEQ ID NO 310 (peptide)
chain: VILRGHLRIAGHHLGRCDIKDLP
IC50 (DRB01*04:04 [4]): 1.91 µM | IC50 (DRB01*15:01 [5]): 5.43 µM

B5: … (position 1016) (peptide)
chain: AEIRASANLAATKMS
IC50 (DRB1*07:01 [6]): 0.395 µM | IC50 (DRB1*15:01 [7]): 0.578 µM

B6: … (peptide)
peptide: AWENTTIDLTSEKPA
modifications: not checked
IC50 (I-Ab (mouse), P14434): 10 µM

B7: TCR_93 (protein)
chain 1: ILNVEQSPQSLHVQEGDSTNFTCSFPSSNFYALHWYRWETAKSPEALFVMTLNGDEKKKGRISATLNTKEGYSYLYIKGSQPEDSATYLCALDYGQNFVFGPGTRLSVLP
chain 2: DGGITQSPKYLFRKEGQNVTLSCEQNLNHDAMYWYRQDPGQGLRLIYYSQIVNDFQKGDIAEGYSVSREKKESFPLTVTSAQKNPTAFYLCASSIGSREAFFGQGTRLTVV
No. of Cells [8]: 2 cells

B8: SEQ ID NO 312 (peptide)
chain: GAVILRGHLRIAGHHLGR
IC50 (DRB01*15:01 [9]): 3.22 µM | IC50 (DRB01*04:04 [10]): 9.54 µM | IC50 (DRB01*11:01): 0.383 µM | IC50 (DRB01*07:01): 14.5 µM

— patent US20220033460A1, “IDENTIFICATION AND USE OF T CELL EPITOPES IN DESIGNING DIAGNOSTIC AND THERAPEUTIC APPROACHES FOR COVID-19” (priority 2020, published 2022)
